This is an account of results in article PMC8244335 (Current Research in Structural Biology, 2019).

“And” between values parts separate entries of the source, which are not always exact repeats. Equal values may be shown once.

The data set deals with the molecule itself. Kind of data set: AUC.

B1: catalytically inactive S679A mutant of Escherichia coli (strain K12) LonA protease, full length (enzyme, E. coli (strain K12), UniProt P0A9M0 1-784, looked up)
chain: MNPERSERIEIPVLPLRDVVVYPHMVIPLFVGREKSIRCLEAAMDHDKKIMLVAQKEASTDEPGVNDLFTVGTVASILQMLKLPDGTVKVLVEGLQRARISALSDNGEHFSAKAEYLESPTIDEREQEVLVRTAISQFEGYIKLNKKIPPEVLTSLNSIDDPARLADTIAAHMPLKLADKQSVLEMSDVNERLEYLMAMMESEIDLLQVEKRIRNRVKKQMEKSQREYYLNEQMKAIQKELGEMDDAPDENEALKRKIDAAKMPKEAKEKAEAELQKLKMMSPMSAEATVVRGYIDWMVQVPWNARSKVKKDLRQAQEILDTDHYGLERVKDRILEYLAVQSRVNKIKGPILCLVGPPGVGKTSLGQSIAKATGRKYVRMALGGVRDEAEIRGHRRTYIGSMPGKLIQKMAKVGVKNPLFLLDEIDKMSSDMRGDPASALLEVLDPEQNVAFSDHYLEVDYDLSDVMFVATSNSMNIPAPLLDRMEVIRLSGYTEDEKLNIAKRHLLPKQIERNALKKGELTVDDSAIIGIIRYYTREAGVRGLEREISKLCRKAVKQLLLDKSLKHIEINGDNLHDYLGVQRFDYGRADNENRVGQVTGLAWTEVGGDLLTIETACVPGKGKLTYTGSLGEVMQESIQAALTVVRARAEKLGINPDFYEKRDIHVHVPEGATPKDGPAAGIAMCTALVSCLTGNPVRADVAMTGEITLRGQVLPIGGLKEKLLAAHRGGIKTVLIPFENKRDLEEIPDNVIADLDIHPVKRIEEVLTLALQNEPSGMQVVTAK
In the case of B1, the “stoichiometry N” value was 12 and 6.
